Results reported in patent publication US20200368364A1, “CYSTEINE PEPTIDE-ENABLED ANTIBODIES” (City of Hope, priority 2016, published 2020).

Target: FcγRIIIa on Jurkat effector cells (UniProt P08637)
Test: cell-based or functional assay

FcγRIIIa on Jurkat effector cells, sequence (P08637 17-254 limits assumed): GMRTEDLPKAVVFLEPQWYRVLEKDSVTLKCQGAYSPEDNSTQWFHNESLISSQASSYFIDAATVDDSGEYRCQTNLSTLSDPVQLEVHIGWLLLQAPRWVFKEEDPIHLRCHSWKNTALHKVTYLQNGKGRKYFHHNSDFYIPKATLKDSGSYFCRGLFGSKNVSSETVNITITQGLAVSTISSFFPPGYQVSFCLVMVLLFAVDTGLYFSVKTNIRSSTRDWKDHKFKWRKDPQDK

EC50 of in vitro ADCC reporter assay (SKBR3 targets, Jurkat effector cells), independent measurement 1: 3.2 pM
EC50 of in vitro ADCC reporter assay (SKBR3 targets, Jurkat effector cells), independent measurement 2: 4.7 pM
B1: templated αCD16-Fab construct with the C-terminal fusion (175Cys trastuzumab Fab + C-terminal meditope αCD16 nanobody) (bispecific antibody, part only; not given: trastuzumab Fab chains, V domains shown, part only)
VHH: EVQLVESGGELVQAGGSLRLSCAASGLTFSSYNMGWFRRAPGKEREFVASITWSGRDTFYADSVKGRFTISRDNAKNTVYLQMSSLKPEDTAVYYCAANPWPVAAPRSGTYWGQGTQVTVSSGSHHHHHHGGSQFDLCTRRLQS
